Measured values taken from the Immune Epitope Database (IEDB).

Legend:
HLA-A*30:01 = experiment: IEDB peptide-MHC binding, purified MHC/competitive/radioactivity; filed as Kd, often an IC50 or EC50 that approximates it; ≥ and ≤ were set here for values at or beyond the usual limits of such assays
HLA-A*24:02 [1] = experiment: IEDB peptide-MHC binding, purified MHC/competitive/fluorescence; ≥ and ≤ were set here for values at or beyond the usual limits of such assays
HLA-A*02:01 [2] = experiment: as above
HLA-A*24:02 [3] = experiment: IEDB peptide-MHC binding, purified MHC/competitive/radioactivity; filed as Kd, often an IC50 or EC50 that approximates it; ≥ and ≤ were set here for values at or beyond the usual limits of such assays
HLA-A*23:01 = experiment: as above
HLA-B*51:01 = experiment: as above; conditions: source organism: Dengue virus 1 Singapore/S275/1990
HLA-A*01:01 = experiment: as above
HLA-B*44:02 = experiment: as above
HLA-A*02:01 [4] = experiment: as above
HLA-A*30:02 = experiment: as above; conditions: source organism: Dengue virus 4 Philippines/H241/1956
HLA-B*40:01 = experiment: as above
HLA-A*03:01 = experiment: IEDB peptide-MHC binding, purified MHC/direct/fluorescence; filed as Kd, often an IC50 or EC50 that approximates it; ≥ and ≤ were set here for values at or beyond the usual limits of such assays; conditions: source organism: SARS-CoV1
HLA-A*11:01 = experiment: as above; conditions: source organism: SARS-CoV1
HLA-A*31:01 = experiment: as above; conditions: source organism: SARS-CoV1
HLA-B*27:05 = experiment: as above; conditions: source organism: SARS-CoV1
HLA-A*02:06 = experiment: IEDB peptide-MHC binding, purified MHC/competitive/radioactivity; filed as Kd, often an IC50 or EC50 that approximates it; ≥ and ≤ were set here for values at or beyond the usual limits of such assays; conditions: source organism: Dengue virus 2 Jamaica/1409/1983
HLA-B*44:03 = experiment: as above; conditions: source organism: Dengue virus 2 Jamaica/1409/1983
HLA-A*26:01 = experiment: as above; conditions: source organism: Dengue virus 3 Martinique/1243/1999
[5] = source organism: Dengue virus 2 Jamaica/1409/1983
[6] = source organism: Dengue virus 4 Philippines/H241/1956
[7] = source organism: Sudan ebolavirus
[8] = source organism: Zaire ebolavirus
[9] = source organism: Dengue virus 3 Martinique/1243/1999
[10] = source organism: Dengue virus 1 Brazil/97-11/1997
[11] = source organism: Vaccinia virus WR
[12] = source organism: Vaccinia virus Copenhagen
[13] = source organism: Lassa virus Josiah
[14] = source organism: Dengue virus 4 Thailand/0348/1991

Q: KRSLRPQPTE was tested. Which Kd (HLA-A*30:01; [5]) did it give?
A: 3690 nM

Q: With LCRTSCLQK as the sequence, how does the Kd (HLA-A*30:01; [6]) read?
A: 1350 nM

Q: LFQKAFSMP was tested. Which IC50 (HLA-A*24:02 [1]; [7]) did it give?
A: 2780 nM

Q: LNLSGVNNL was tested. Which IC50 (HLA-A*02:01 [2]; [8]) did it give?
A: ≥ 77500 nM

Q: Which IC50 (HLA-A*02:01 [2]; [8]) does the source give for LSFTVVSNG here?
A: ≥ 325000 nM

Q: How did the IC50 (HLA-A*02:01 [2]; source organism: Variola virus) turn out when LTKLFSYGT was run?
A: 36100 nM

Q: LWPKTHTLW was tested. Which Kd (HLA-A*24:02 [3]; [6]) did it give?
A: 44.9 nM

Q: What does the source list for LWVAEIQPQW?
A: Kd (HLA-A*23:01; [6]): 1380 nM; Kd (HLA-A*24:02 [3]; [6]): 312 nM

Q: Which Kd (HLA-A*30:01; [6]) does the source give for MAICSAVPTE here?
A: 10600 nM

Q: How did the IC50 (HLA-A*02:01 [2]; [8]) turn out when MDSRPQKIW was run?
A: ≥ 191000 nM

Q: What about the IC50 (HLA-A*24:02 [1]; [8]) of the same sequence?
A: 67800 nM

Q: For MFLIAENKI, which Kd (HLA-A*23:01; source organism: Dengue virus 1 Singapore/S275/1990) is on record?
A: 913 nM

Q: What about the Kd (HLA-B*51:01) of the same sequence?
A: 2760 nM

Q: Which Kd (HLA-A*01:01; [6]) does the source give for MTDTTPFGQ here?
A: 3770 nM

Q: With MVPLHIPEG as the sequence, how does the IC50 (HLA-A*02:01 [2]; [7]) read?
A: 38200 nM

Q: How did the Kd (HLA-B*44:02; [9]) turn out when NEMILLTMK was run?
A: 824 nM

Q: For NLLTTPKFT, which Kd (HLA-A*02:01 [4]; source organism: Human alphaherpesvirus 1 strain 17) is on record?
A: 500 nM

Q: NTSANLSLA was tested. Which Kd (HLA-A*01:01; [6]) did it give?
A: 1350 nM

Q: How did the Kd (HLA-A*23:01; [9]) turn out when NVWEVEDYGF was run?
A: 175 nM

Q: Which Kd (HLA-A*23:01; [5]) does the source give for NWLNNNTQF here?
A: 716 nM

Q: And the Kd (HLA-A*24:02 [3]; [5])?
A: 88 nM

Q: PLEEELPR was tested. Which Kd (HLA-A*02:01 [4]; source organism: Hepatitis B virus) did it give?
A: ≥ 25000 nM

Q: Which Kd (HLA-A*01:01; [6]) does the source give for PSSVAARGY here?
A: 200 nM

Q: And the Kd (HLA-A*30:02)?
A: 3230 nM

Q: What does the source list for PTAWQSVGH?
A: IC50 (HLA-A*02:01 [2]; [8]): ≥ 264000 nM; IC50 (HLA-A*24:02 [1]; [8]): 28700 nM

Q: For PVYQVNNLE, which IC50 (HLA-A*24:02 [1]; [8]) is on record?
A: ≥ 100000 nM

Q: Which Kd (HLA-A*02:01 [4]; source organism: Hepatitis B virus subtype adw2) does the source give for QAFTFSPTYK here?
A: ≥ 35000 nM

Q: For QREIFSAWI, which IC50 (HLA-A*24:02 [1]; source organism: Variola virus) is on record?
A: ≥ 76300 nM

Q: For REDLWCGSL, which Kd (HLA-B*40:01; [6]) is on record?
A: 2.35 nM

Q: How did the Kd (HLA-B*40:01; [5]) turn out when REEEEAGVL was run?
A: 3.23 nM

Q: For REIVVPCRNQ, which Kd (HLA-B*40:01; [10]) is on record?
A: 228 nM

Q: What does the source list for RHYSASFKK?
A: Kd (HLA-A*03:01): 341 nM; Kd (HLA-A*11:01): 705 nM; Kd (HLA-A*31:01): 1250 nM; Kd (HLA-B*27:05): 282 nM

Q: Which Kd (HLA-A*30:01; [11]) does the source give for RTKITSLPL here?
A: 0.0866 nM

Q: What does the source list for RTLRVLNLV?
A: Kd (HLA-A*02:06): 10.2 nM; Kd (HLA-A*30:01; [5]): 222 nM

Q: How did the IC50 (HLA-A*02:01 [2]; [8]) turn out when RYVHKVSGT was run?
A: ≥ 90900 nM

Q: And the IC50 (HLA-A*24:02 [1]; [8])?
A: 6660 nM

Q: For SGVLWDTPSP, which Kd (HLA-A*30:01; [10]) is on record?
A: ≥ 70400 nM

Q: How did the IC50 (HLA-A*02:01 [2]; [12]) turn out when SSQMTSTFI was run?
A: ≥ 72600 nM

Q: What about the IC50 (HLA-A*24:02 [1]; [12]) of the same sequence?
A: ≥ 70900 nM

Q: How did the Kd (HLA-A*01:01; [9]) turn out when STANVSLAA was run?
A: 2030 nM

Q: For STSNGLITS, which IC50 (HLA-A*02:01 [2]; [7]) is on record?
A: ≥ 177000 nM

Q: Which IC50 (HLA-A*02:01 [2]; source organism: West Nile virus NY-99) does the source give for SVGGVFTSV here?
A: 247 nM

Q: Which Kd (HLA-A*30:01; [11]) does the source give for SVKCQSPPS here?
A: 16.8 nM

Q: What does the source list for SYLAGAGLLF?
A: Kd (HLA-A*23:01; [5]): 0.709 nM; Kd (HLA-A*24:02 [3]; [5]): 6.22 nM

Q: With TEMGRLPTFM as the sequence, how does the Kd (HLA-B*44:02; [5]) read?
A: 11.6 nM

Q: What about the Kd (HLA-B*44:03) of the same sequence?
A: 167 nM

Q: TISGVLWQV was tested. Which Kd (HLA-A*02:01 [4]; source organism: Hepatitis C virus subtype 2b) did it give?
A: 35 nM

Q: How did the IC50 (HLA-A*02:01 [2]; [8]) turn out when TSFFLWVII was run?
A: ≥ 503000 nM

Q: What about the IC50 (HLA-A*24:02 [1]; [8]) of the same sequence?
A: ≥ 131000 nM

Q: For TTRDKLFNK, which Kd (HLA-A*30:01; [11]) is on record?
A: 123 nM

Q: With TVIEHLERL as the sequence, how does the Kd (HLA-A*26:01) read?
A: 81.1 nM

Q: What does the source list for TVTGILGSL?
A: IC50 (HLA-A*02:01 [2]; [7]): 22500 nM; IC50 (HLA-A*24:02 [1]; [7]): ≥ 76800 nM

Q: Which Kd (HLA-A*02:01 [4]; source organism: Homo sapiens) does the source give for VLLGVKLSGV here?
A: 4.7 nM

Q: VLQTFMRMA was tested. Which Kd (HLA-A*02:01 [4]; [13]) did it give?
A: ≥ 5000 nM

Q: Which Kd (HLA-A*23:01; [14]) does the source give for VWIEDNPNMI here?
A: 472 nM

Q: And the Kd (HLA-A*24:02 [3]; [14])?
A: 546 nM

Q: Which Kd (HLA-A*24:02 [3]; [9]) does the source give for VYRIKQQGI here?
A: 464 nM

Q: WLVSNGSYL was tested. Which Kd (HLA-A*02:01 [4]; [13]) did it give?
A: 1790 nM

Q: For YENLKYTVII, which Kd (HLA-B*40:01; [9]) is on record?
A: 2.82 nM

Q: How did the IC50 (HLA-A*02:01 [2]; source organism: Homo sapiens) turn out when YIGEVLVSV was run?
A: 10 nM

Q: Which IC50 (HLA-A*02:01 [2]; source organism: Hepatitis C virus genotype 1) does the source give for YLFNWAVRT here?
A: 5000 nM

Q: With YPNVCIFGN as the sequence, how does the IC50 (HLA-A*24:02 [1]; source organism: Vaccinia virus) read?
A: 35500 nM

Q: With YWPVMNHKN as the sequence, how does the IC50 (HLA-A*24:02 [1]; [8]) read?
A: 7120 nM
